IntAct's records for PubMed 25588830

B1: Septin-12 (Homo sapiens), Q8IYM1 (parent)
chain: MDPLRRSPSPCLSSQPSSPSTPPCEMLGPVGIEAVLDQLKIKAMKMGFEFNIMVVGQSGLGKSTMVNTLFKSKVWKSNPPGLGVPTPQTLQLHSLTHVIEEKGVKLKLTVTDTPGFGDQINNDNCWDPILGYINEQYEQYLQEEILITRQRHIPDTRVHCCVYFVPPTGHCLRPLDIEFLQRLCRTVNVVPVIARADSLTMEEREAFRRRIQQNLRTHCIDVYPQMCFDEDINDKILNSKLRDRIPFAVVGADQEHLVNGRCVLGRKTKWGIIEVENMAHCEFPLLRDLLIRSHLQDLKDITHNIHYENYRVIRLNESHLLPRGPGWVNLAPASPGQLTTPRTFKVCRGAHDDSDDEF
partner: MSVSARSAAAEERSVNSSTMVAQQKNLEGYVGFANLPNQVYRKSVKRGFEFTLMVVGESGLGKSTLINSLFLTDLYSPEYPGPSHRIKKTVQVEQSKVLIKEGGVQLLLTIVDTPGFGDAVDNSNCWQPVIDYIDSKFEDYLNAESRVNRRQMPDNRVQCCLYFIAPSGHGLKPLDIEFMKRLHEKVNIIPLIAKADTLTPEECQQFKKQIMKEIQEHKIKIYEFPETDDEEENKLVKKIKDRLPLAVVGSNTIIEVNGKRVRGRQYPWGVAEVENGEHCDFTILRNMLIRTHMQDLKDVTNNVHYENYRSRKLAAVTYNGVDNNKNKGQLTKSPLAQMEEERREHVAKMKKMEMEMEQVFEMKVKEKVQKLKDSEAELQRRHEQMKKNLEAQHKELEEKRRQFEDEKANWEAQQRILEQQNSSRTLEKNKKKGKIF
B2: Septin-12 (Homo sapiens), Q8IYM1 (parent)
chain: B1 chain
partner: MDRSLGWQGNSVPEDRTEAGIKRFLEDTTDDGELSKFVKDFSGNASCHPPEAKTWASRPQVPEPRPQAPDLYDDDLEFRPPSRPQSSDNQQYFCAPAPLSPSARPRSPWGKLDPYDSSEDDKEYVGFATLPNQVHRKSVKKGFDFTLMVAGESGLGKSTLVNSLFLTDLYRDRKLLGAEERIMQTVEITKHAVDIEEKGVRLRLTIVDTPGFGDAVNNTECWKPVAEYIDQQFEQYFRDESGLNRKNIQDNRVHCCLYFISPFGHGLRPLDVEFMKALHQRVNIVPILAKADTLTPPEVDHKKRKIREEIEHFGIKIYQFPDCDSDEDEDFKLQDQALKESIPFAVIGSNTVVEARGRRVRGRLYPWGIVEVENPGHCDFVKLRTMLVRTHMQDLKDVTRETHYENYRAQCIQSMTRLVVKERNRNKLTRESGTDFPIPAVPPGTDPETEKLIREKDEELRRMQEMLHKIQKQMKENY
B3: Septin-12 (Homo sapiens), Q8IYM1 (parent)
chain: B1 chain
partner: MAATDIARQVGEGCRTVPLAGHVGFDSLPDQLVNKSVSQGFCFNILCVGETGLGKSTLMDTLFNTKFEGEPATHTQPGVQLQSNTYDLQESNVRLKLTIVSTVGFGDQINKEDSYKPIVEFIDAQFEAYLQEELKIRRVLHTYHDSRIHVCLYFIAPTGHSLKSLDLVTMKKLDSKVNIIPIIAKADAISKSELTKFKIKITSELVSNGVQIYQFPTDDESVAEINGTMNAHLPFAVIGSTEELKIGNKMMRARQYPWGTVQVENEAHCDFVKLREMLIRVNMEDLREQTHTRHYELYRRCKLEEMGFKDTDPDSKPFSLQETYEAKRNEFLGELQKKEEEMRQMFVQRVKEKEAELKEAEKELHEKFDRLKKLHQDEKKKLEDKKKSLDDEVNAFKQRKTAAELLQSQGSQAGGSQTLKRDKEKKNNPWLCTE
B4: Septin-12 (Homo sapiens), Q8IYM1 (parent)
chain: B1 chain
partner: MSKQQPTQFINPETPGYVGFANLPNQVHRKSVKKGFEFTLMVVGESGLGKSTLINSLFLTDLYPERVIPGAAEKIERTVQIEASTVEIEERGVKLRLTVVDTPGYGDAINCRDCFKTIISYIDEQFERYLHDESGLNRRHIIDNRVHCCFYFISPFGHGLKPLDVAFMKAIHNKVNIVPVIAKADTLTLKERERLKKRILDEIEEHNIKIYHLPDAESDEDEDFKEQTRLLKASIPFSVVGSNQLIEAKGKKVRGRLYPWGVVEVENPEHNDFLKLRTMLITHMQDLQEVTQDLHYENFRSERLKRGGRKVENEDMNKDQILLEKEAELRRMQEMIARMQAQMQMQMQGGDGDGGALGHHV

Variants of: B1
Details: with sept7_human SEPTIN7, Q16181

Row | effect of a mutation on the interaction | Variant
1 | disrupting interaction strength | T89M
2 | disrupting interaction strength | D197N

Variants of: B1
Details: with sept7_human SEPTIN7, Q16181
Remark: another data set of the same source

Row | effect of a mutation on the interaction | Variant
3 | decreasing interaction | T89M
4 | disrupting interaction | D197N

Variants of: B2
Details: with sept4_human SEPTIN4, O43236

Row | effect of a mutation on the interaction | Variant
5 | disrupting interaction | D197N

Variants of: B3
Details: with sept6_human SEPTIN6, Q14141

Row | effect of a mutation on the interaction | Variant
6 | disrupting interaction | D197N

Variants of: B4
Details: with sept2_human SEPTIN2, Q15019

Row | effect of a mutation on the interaction | Variant
7 | disrupting interaction | D197N
